The target of this data set is MBP-KRIPP11-His6 (Trypanosoma brucei) (UniProt Q57YK5). As to the kind of experiment: fluorescence anisotropy. The settings on record: FA: 20 mM Tris-HCl pH 7.5, 150 mM KCl, 5 mM MgCl2, 1 mM DTT, 20 nM RNA/DNA, 25 C, EMSA: same buffer with BSA and RNAsin, 150 nM RNA/DNA, 2% tris-glycine ….

For the sequence GGGG [G4 RNA], the Kd was 3420 nM. Regarding GGGGCCUUUAAA [G4C2U3A3], the Kd worked out at 2210 nM.

The sequence GGGGGG [G6 RNA] yielded a Kd of 1070 nM. Turning to GGGGGGCCUUAA [G6C2U2A2], the Kd stood at 930 nM. Same read-out and setting: under GGGGGGGGG [G9 RNA] stands 1870 nM; under GGGGGGGGGGGG [G12 RNA (native)], 660 nM.

Regarding GGGGGGGGGGGG [dG12], the Kd (DNA) stood at 1880 nM. That is a single-digit micromolar value. As to GGUGGUGGUGGU [(GGU)4], the Kd worked out at 6550 nM.

(Values after paper PMC6242908.)
